We go through one substance from paper PMC5354776.

In assay [1] the target is CLIP-170 (cytoplasmic linker protein 170) (UniProt P30622). Briefly: HA immunoprecipitation, CLIP-170 immunoblot. Particulars: reference: HA-EB1 wild type; sites S40,T154,T206.
The target of another assay is p150glued (UniProt Q14203). Briefly: HA immunoprecipitation, p150glued immunoblot. Conditions: reference: HA-EB1 wild type; sites S40,T154,T206.

In the case of “EB1 (end-binding protein 1) (from UniProt Q15691) HA-EB1 3A (S40A/T154A/T206A)”, the “binding against the reference” value (in assay [1]; with p150glued) was “weaker” throughout.
